Test results reported in PMC10786891, “Massively parallel profiling of RNA-targeting CRISPR-Cas13d”.

What follows are binders tested against T1, EsCas13d, nuclease-dead (Eubacterium siraeum, UniProt B0MS50, R295A;H300A;R849A;H854A) (assay: crRNA (strand 1, pre-loaded); Mg2+; 40 mM Tris-HCl pH 7.5, 150 mM NaCl, 6 mM MgCl2, 1 mM DTT, 0.1% Tween-20, 0.2 mg/ml BSA; 25 C; 10 min per concentration, then washed). Conditions: tags: His6-TwinStrep-SUMO cleaved; N-terminal SNAP kept (SNAP-Surface 488); label: 3' end held by stalled T7 RNA polymerase.
T1 sequence: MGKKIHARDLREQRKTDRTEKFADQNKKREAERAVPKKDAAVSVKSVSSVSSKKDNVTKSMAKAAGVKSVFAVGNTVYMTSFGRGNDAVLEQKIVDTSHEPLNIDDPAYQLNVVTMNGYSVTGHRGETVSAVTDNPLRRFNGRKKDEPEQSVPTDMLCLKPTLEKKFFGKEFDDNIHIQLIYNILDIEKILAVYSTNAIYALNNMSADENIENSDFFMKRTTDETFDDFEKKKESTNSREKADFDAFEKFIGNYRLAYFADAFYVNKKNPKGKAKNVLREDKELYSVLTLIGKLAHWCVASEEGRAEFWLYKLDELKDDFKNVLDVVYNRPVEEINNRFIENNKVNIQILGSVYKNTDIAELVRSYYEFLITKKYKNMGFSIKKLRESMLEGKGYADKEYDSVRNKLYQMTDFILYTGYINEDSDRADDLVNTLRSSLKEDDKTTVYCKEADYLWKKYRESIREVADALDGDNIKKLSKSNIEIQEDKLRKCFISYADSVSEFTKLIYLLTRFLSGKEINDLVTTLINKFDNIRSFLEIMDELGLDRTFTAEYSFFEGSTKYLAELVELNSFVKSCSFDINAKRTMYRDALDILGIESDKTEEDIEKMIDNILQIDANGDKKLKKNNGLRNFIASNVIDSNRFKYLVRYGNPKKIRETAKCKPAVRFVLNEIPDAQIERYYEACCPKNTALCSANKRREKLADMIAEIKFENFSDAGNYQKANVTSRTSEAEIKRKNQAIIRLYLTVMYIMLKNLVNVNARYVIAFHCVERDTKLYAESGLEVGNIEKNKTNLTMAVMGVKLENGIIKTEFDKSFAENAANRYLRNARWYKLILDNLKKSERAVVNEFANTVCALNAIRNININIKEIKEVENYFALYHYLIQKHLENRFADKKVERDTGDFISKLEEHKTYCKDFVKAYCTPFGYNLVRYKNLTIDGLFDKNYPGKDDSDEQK

Row | Binder | Kd [nM]
1 | target 2 MT 5'PFS GUU 3'PFS CAA (mixed) RNA 1: CACCCGUGCAAAAUUGCAGGGGUCUAAAACCUUCUCCAAAUUGUUUCAUCCU RNA 2: GGGAAUGGAUCCACAUCUACGAAUUCGUUAGGAUGAAACAAUUUGGAGAAGCAAAGAUCGGAAGAGCACACGU | 6.6 ± 0.7
2 | target 1 insG 3' of 1,insC 3' of 1 (mixed) RNA 1: CACCCGUGCAAAAAUGCAGGGGUCUAAAACUGAGCGGAUAACCUCUCUAUGG RNA 2: GGGAAUGGAUCCACAUCUACGAAUUCGUACCAUAGAGAGGUUAUCCGCUCAGCCCGAGAUCGGAAGAGCACACGU | 11 ± 1.4
3 | target 2 MT 5'PFS GUU 3'PFS CAC (mixed) RNA 1: CACCCGUGCAAAAUUGCAGGGGUCUAAAACCUUCUCCAAAUUGUUUCAUCCU RNA 2: GGGAAUGGAUCCACAUCUACGAAUUCGUUAGGAUGAAACAAUUUGGAGAAGCACAGAUCGGAAGAGCACACGU | 15.3 ± 2.3
4 | target 2 MT 5'PFS UCA 3'PFS AUA (mixed) RNA 1: CACCCGUGCAAAAUUGCAGGGGUCUAAAACCUUCUCCAAAUUGUUUCAUCCU RNA 2: GGGAAUGGAUCCACAUCUACGAAUUCUCAAGGAUGAAACAAUUUGGAGAAGAUAAGAUCGGAAGAGCACACGU | 6.2 ± 2
5 | target 2 MT 5'PFS UAU 3'PFS CUC (mixed) RNA 1: CACCCGUGCAAAAUUGCAGGGGUCUAAAACCUUCUCCAAAUUGUUUCAUCCU RNA 2: GGGAAUGGAUCCACAUCUACGAAUUCUAUAGGAUGAAACAAUUUGGAGAAGCUCAGAUCGGAAGAGCACACGU | 38 ± 7
6 | target 2 MT 5'PFS UCA 3'PFS AUC (mixed) RNA 1: CACCCGUGCAAAAUUGCAGGGGUCUAAAACCUUCUCCAAAUUGUUUCAUCCU RNA 2: GGGAAUGGAUCCACAUCUACGAAUUCUCAAGGAUGAAACAAUUUGGAGAAGAUCAGAUCGGAAGAGCACACGU | 3.6 ± 0.6
7 | target 2 MT 5'PFS UAU 3'PFS CUA (mixed) RNA 1: CACCCGUGCAAAAUUGCAGGGGUCUAAAACCUUCUCCAAAUUGUUUCAUCCU RNA 2: GGGAAUGGAUCCACAUCUACGAAUUCUAUAGGAUGAAACAAUUUGGAGAAGCUAAGAUCGGAAGAGCACACGU | 22.7 ± 2.8
8 | target 2 MT 5'PFS AAA 3'PFS AAG (mixed) RNA 1: CACCCGUGCAAAAUUGCAGGGGUCUAAAACCUUCUCCAAAUUGUUUCAUCCU RNA 2: GGGAAUGGAUCCACAUCUACGAAUUCAAAAGGAUGAAACAAUUUGGAGAAGAAGAGAUCGGAAGAGCACACGU | 4 ± 0.5
9 | target 2 MT 5'PFS UAU 3'PFS CUG (mixed) RNA 1: CACCCGUGCAAAAUUGCAGGGGUCUAAAACCUUCUCCAAAUUGUUUCAUCCU RNA 2: GGGAAUGGAUCCACAUCUACGAAUUCUAUAGGAUGAAACAAUUUGGAGAAGCUGAGAUCGGAAGAGCACACGU | 17.4 ± 1.9
10 | target 2 MT 5'PFS UCA 3'PFS AUG (mixed) RNA 1: CACCCGUGCAAAAUUGCAGGGGUCUAAAACCUUCUCCAAAUUGUUUCAUCCU RNA 2: GGGAAUGGAUCCACAUCUACGAAUUCUCAAGGAUGAAACAAUUUGGAGAAGAUGAGAUCGGAAGAGCACACGU | 4 ± 1
11 | target 2 MT 5'PFS GUU 3'PFS CAU (mixed) RNA 1: CACCCGUGCAAAAUUGCAGGGGUCUAAAACCUUCUCCAAAUUGUUUCAUCCU RNA 2: GGGAAUGGAUCCACAUCUACGAAUUCGUUAGGAUGAAACAAUUUGGAGAAGCAUAGAUCGGAAGAGCACACGU | 14.2 ± 1.9
12 | target 2 MT 5'PFS GUA 3'PFS CGA (mixed) RNA 1: CACCCGUGCAAAAUUGCAGGGGUCUAAAACCUUCUCCAAAUUGUUUCAUCCU RNA 2: GGGAAUGGAUCCACAUCUACGAAUUCGUAAGGAUGAAACAAUUUGGAGAAGCGAAGAUCGGAAGAGCACACGU | 6.4 ± 0.5
13 | target 1 insG 3' of 22,insU 3' of 12 (mixed) RNA 1: CACCCGUGCAAAAAUGCAGGGGUCUAAAACUGAGCGGAUAACCUCUCUAUGG RNA 2: GGGAAUGGAUCCACAUCUACGAAUUCGUACGCAUAGAGAGGUUUAUCCGCUCACCGAGAUCGGAAGAGCACACGU | 20.5 ± 1.8
14 | target 2 MT 5'PFS UCA 3'PFS AUU (mixed) RNA 1: CACCCGUGCAAAAUUGCAGGGGUCUAAAACCUUCUCCAAAUUGUUUCAUCCU RNA 2: GGGAAUGGAUCCACAUCUACGAAUUCUCAAGGAUGAAACAAUUUGGAGAAGAUUAGAUCGGAAGAGCACACGU | 4.4 ± 0.5
15 | target 2 MT 5'PFS UAU 3'PFS CUU (mixed) RNA 1: CACCCGUGCAAAAUUGCAGGGGUCUAAAACCUUCUCCAAAUUGUUUCAUCCU RNA 2: GGGAAUGGAUCCACAUCUACGAAUUCUAUAGGAUGAAACAAUUUGGAGAAGCUUAGAUCGGAAGAGCACACGU | 54 ± 14
16 | target 2 MT 5'PFS GGC 3'PFS UUU (mixed) RNA 1: CACCCGUGCAAAAUUGCAGGGGUCUAAAACCUUCUCCAAAUUGUUUCAUCCU RNA 2: GGGAAUGGAUCCACAUCUACGAAUUCGGCAGGAUGAAACAAUUUGGAGAAGUUUAGAUCGGAAGAGCACACGU | 27 ± 5
17 | target 2 MT 5'PFS GUA 3'PFS CGC (mixed) RNA 1: CACCCGUGCAAAAUUGCAGGGGUCUAAAACCUUCUCCAAAUUGUUUCAUCCU RNA 2: GGGAAUGGAUCCACAUCUACGAAUUCGUAAGGAUGAAACAAUUUGGAGAAGCGCAGAUCGGAAGAGCACACGU | 7.4 ± 0.5
18 | target 2 MT 5'PFS UGU 3'PFS CCG (mixed) RNA 1: CACCCGUGCAAAAUUGCAGGGGUCUAAAACCUUCUCCAAAUUGUUUCAUCCU RNA 2: GGGAAUGGAUCCACAUCUACGAAUUCUGUAGGAUGAAACAAUUUGGAGAAGCCGAGAUCGGAAGAGCACACGU | 12.6 ± 1.4
19 | target 2 MT 5'PFS GAA 3'PFS CCA (mixed) RNA 1: CACCCGUGCAAAAUUGCAGGGGUCUAAAACCUUCUCCAAAUUGUUUCAUCCU RNA 2: GGGAAUGGAUCCACAUCUACGAAUUCGAAAGGAUGAAACAAUUUGGAGAAGCCAAGAUCGGAAGAGCACACGU | 25 ± 6
20 | target 2 MT 5'PFS GAG 3'PFS UAU (mixed) RNA 1: CACCCGUGCAAAAUUGCAGGGGUCUAAAACCUUCUCCAAAUUGUUUCAUCCU RNA 2: GGGAAUGGAUCCACAUCUACGAAUUCGAGAGGAUGAAACAAUUUGGAGAAGUAUAGAUCGGAAGAGCACACGU | 5.6 ± 0.5
21 | target 2 MT 5'PFS GAA 3'PFS CCG (mixed) RNA 1: CACCCGUGCAAAAUUGCAGGGGUCUAAAACCUUCUCCAAAUUGUUUCAUCCU RNA 2: GGGAAUGGAUCCACAUCUACGAAUUCGAAAGGAUGAAACAAUUUGGAGAAGCCGAGAUCGGAAGAGCACACGU | 10.5 ± 1.2
22 | target 2 MT 5'PFS GCG 3'PFS CAU (mixed) RNA 1: CACCCGUGCAAAAUUGCAGGGGUCUAAAACCUUCUCCAAAUUGUUUCAUCCU RNA 2: GGGAAUGGAUCCACAUCUACGAAUUCGCGAGGAUGAAACAAUUUGGAGAAGCAUAGAUCGGAAGAGCACACGU | 13 ± 4
23 | target 2 MT 5'PFS GCG 3'PFS CAC (mixed) RNA 1: CACCCGUGCAAAAUUGCAGGGGUCUAAAACCUUCUCCAAAUUGUUUCAUCCU RNA 2: GGGAAUGGAUCCACAUCUACGAAUUCGCGAGGAUGAAACAAUUUGGAGAAGCACAGAUCGGAAGAGCACACGU | 10.4 ± 1.3
24 | target 1 insG 3' of 1,insG 3' of 1 (mixed) RNA 1: CACCCGUGCAAAAAUGCAGGGGUCUAAAACUGAGCGGAUAACCUCUCUAUGG RNA 2: GGGAAUGGAUCCACAUCUACGAAUUCGUACCAUAGAGAGGUUAUCCGCUCAGGCCGAGAUCGGAAGAGCACACGU | 8.6 ± 0.5
